From US20070077617
Changes are numbered by the printed parent chain. Names may count otherwise.

B1: OmpT protease variant OmpT D97V (protein)
chain: STETLSFTPDNINADISLGTLSGKTKERVYLAEEGGRKVSQLDWKFNNAAIIKGAINWDLMPQISIGAAGWTTLGSRGGNMVDQDWMDSSNPGTWTVESRHPDTQLNYANEFDLNIKGWLLNEPNYRLGLMAGYQESRYSFTARGGSYIYSSEEGFRDDIGSFPNGERAIGYKQRFKMPYIGLTGSYRYEDFELGGTFKYSGWVESSDNDEHYDPGKRITYRSKVKDQNYYSVAVNAGYYVTPNAKVYVEGAWNRVTNKKGNTSLYDHNNNTSDYSKNGAGIENYNFITTAGLKYTF
B2: OmpT protease variant OmpT D97W (protein)
chain: B1 chain with V97W
B3: OmpT protease variant OmpT D97I (protein)
chain: B1 chain with V97I
B4: OmpT protease variant OmpT D97R (protein)
chain: B1 chain with V97R
B5: OmpT protease variant OmpT D97S (protein)
chain: B1 chain with V97S
B6: OmpT protease variant OmpT D97C (protein)
chain: B1 chain with V97C
B7: OmpT protease variant OmpT D97L (protein)
chain: B1 chain with V97L
B8: OmpT protease variant OmpT D97Y (protein)
chain: B1 chain with V97Y
B9: OmpT protease variant OmpT D97Q (protein)
chain: B1 chain with V97Q
B10: OmpT protease variant OmpT D97T (protein)
chain: B1 chain with V97T
B11: OmpT protease variant OmpT D97M (protein)
chain: B1 chain with V97M
B12: OmpT protease variant OmpT D97G (protein)
chain: B1 chain with V97G
B13: OmpT protease variant OmpT D97K (protein)
chain: B1 chain with V97K
B14: OmpT protease variant OmpT D97E (protein)
chain: B1 chain with V97E
B15: OmpT protease variant OmpT D97N (protein)
chain: B1 chain with V97N
B16: OmpT protease variant OmpT D97P (protein)
chain: B1 chain with V97P
B17: OmpT protease variant OmpT D97F (protein)
chain: B1 chain with V97F
B18: OmpT protease variant OmpT D97A (protein)
chain: B1 chain with V97A
B19: OmpT protease variant OmpT D97H (protein)
chain: B1 chain with V97H

These proteins were tested against fusion protein PRV.
Sequence of fusion protein PRV (chain, as listed by the source): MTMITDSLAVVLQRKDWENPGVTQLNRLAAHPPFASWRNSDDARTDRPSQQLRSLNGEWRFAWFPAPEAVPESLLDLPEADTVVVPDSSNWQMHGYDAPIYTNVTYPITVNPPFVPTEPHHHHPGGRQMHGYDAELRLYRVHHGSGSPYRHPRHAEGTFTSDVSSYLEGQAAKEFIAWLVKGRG

Q: With B1 as the protein, how does the relative cleavage efficiency read?
A: Its relative cleavage efficiency is “less than 3.0%”.

Q: B2 was tested. Which relative cleavage efficiency did it give?
A: Its relative cleavage efficiency is “less than 3.0%”.

Q: B3 was tested. Which relative cleavage efficiency did it give?
A: The relative cleavage efficiency was “less than 3.0%”.

Q: How did the relative cleavage efficiency turn out when B4 was run?
A: The relative cleavage efficiency was “less than 3.0%”.

Q: Which relative cleavage efficiency does the source give for B5 here?
A: Its relative cleavage efficiency is < 3%.

Q: Which relative cleavage efficiency does the source give for B6 here?
A: Its relative cleavage efficiency is 3.2%.

Q: How did the relative cleavage efficiency turn out when B7 was run?
A: The relative cleavage efficiency was < 3%.

Q: Which relative cleavage efficiency does the source give for B8 here?
A: The relative cleavage efficiency was “less than 3.0%”.

Q: Which relative cleavage efficiency does the source give for B9 here?
A: Its relative cleavage efficiency is < 3%.

Q: For B10, which relative cleavage efficiency is on record?
A: The relative cleavage efficiency was < 3%.

Q: B11 was tested. Which relative cleavage efficiency did it give?
A: Its relative cleavage efficiency is 3%.

Q: For B12, which relative cleavage efficiency is on record?
A: The relative cleavage efficiency was “less than 3.0%”.

Q: Which relative cleavage efficiency does the source give for B13 here?
A: Its relative cleavage efficiency is “less than 3.0%”.

Q: Which relative cleavage efficiency does the source give for B14 here?
A: The relative cleavage efficiency was 5%.

Q: How did the relative cleavage efficiency turn out when B15 was run?
A: The relative cleavage efficiency was < 3%.

Q: For B16, which relative cleavage efficiency is on record?
A: Its relative cleavage efficiency is “less than 3.0%”.

Q: How did the relative cleavage efficiency turn out when B17 was run?
A: The relative cleavage efficiency was < 3%.

Q: Which relative cleavage efficiency does the source give for B18 here?
A: The relative cleavage efficiency was < 3%.

Q: B19 was tested. Which relative cleavage efficiency did it give?
A: The relative cleavage efficiency was 7.8%.
